The results in this text go back to article PMC9299292, “The nuclear egress complex of Epstein-Barr virus buds membranes through an oligomerization-driven mechanism” (PLoS Pathogens, 2022).

The target of data set [1] is EBV NEC215-Q43A_(BFRF1)/N31S_(BFLF2)-His8 (Epstein-Barr virus (strain B95-8)) (UniProt P03185).
Data set [2] has as its target EBV NEC215-N31S_(BFLF2)/F267W_(BFLF2)-His8 (Epstein-Barr virus (strain B95-8)) (UniProt P03185).
The target of data set [3] is EBV NEC215-N31S_(BFLF2)/L262F_(BFLF2)-His8 (Epstein-Barr virus (strain B95-8)) (UniProt P03185).
For data set [4], the target named is EBV NEC215-N121Q_(BFRF1)/N31S_(BFLF2)-His8 (Epstein-Barr virus (strain B95-8)) (UniProt P03185).
Data set [5] deals with the molecule itself. The data set can be described thus: crystal structure; EBV NEC195Δ65; hanging drops at 20°C, protein in 20 mM HEPES pH 8.0, 100 mM NaCl, 0.5 mM TCEP over 25% PEG 3350, 0.1 M Tris-HCl pH 8.5, 0.2 M Li2SO4; space group P4(3)2(1)2, five heterodimers in the asymmetric unit; 3.97 Å.

Bounds are passed on as bounds.

For the molecule “EBV NEC215-Q43A_(BFRF1)/N31S_(BFLF2)-His8 (from UniProt P03185 1-215; P0CK47 1-318) (complex)”, the in-vitro GUV budding assay (intraluminal vesicles, 1.5 uM NEC, Ni-chelating lipids), against WT EBV NEC215-N31S (BFLF2)-His8 (% of the WT EBV NEC) in data set [1] was < 25.

Regarding “EBV NEC215-N31S_(BFLF2)/F267W_(BFLF2)-His8 (from UniProt P03185 1-215; P0CK47 1-318) (complex)”, the in-vitro GUV budding assay (intraluminal vesicles, 1.5 uM NEC, Ni-chelating lipids), against WT EBV NEC215-N31S (BFLF2)-His8 (% of the WT EBV NEC) in data set [2] is < 25. As for “EBV NEC215-N31S_(BFLF2)/L262F_(BFLF2)-His8 (from UniProt P03185 1-215; P0CK47 1-318) (complex)”, the in-vitro GUV budding assay (intraluminal vesicles, 1.5 uM NEC, Ni-chelating lipids), against WT EBV NEC215-N31S (BFLF2)-His8 (% of the WT EBV NEC) in data set [3] is < 25. On to “EBV NEC215-N121Q_(BFRF1)/N31S_(BFLF2)-His8 (from UniProt P03185 1-215; P0CK47 1-318) (complex)”, for which the in-vitro GUV budding assay (intraluminal vesicles, 1.5 uM NEC, Ni-chelating lipids), against WT EBV NEC215-N31S (BFLF2)-His8 in data set [4] stood at 2 fold.

B1: EBV NEC195Δ65 (complex)
chain 1: MASPEERLLDELNNVIVSFLCDSGSLEVERCSGAHVFSRGSSQPLCTVKLRHGQIYHLEFVYKFLAFKLKNCNYPSSPVFVISNNGLATTLRCFLHEPSGLRSGQSGPCLGLSTDVDLPKNSIIMLGQDDFIKFKSPLVFPAELDLLKSMVVCRAYITEHRTTMQFLVFQAANAQKASRVMDMISDMSQQLSRSG
chain 2: RSICSRHTRHGVDRSHFSLRDFFRGISANFELGKDFLREMNTPIHVSEAVFLPLSLCTLSPGRCLRLSPFGHSLTLGSHCEICINRSQVHVPQEFSSTQLSFFNNVHKIIPNKTFYVSLLSSSPSAVKAGLSQPSLLYAYLVTGHFCGTICPIFSTNGKGRLIMHLLLQGTSLHIPETCLKLLCENIGPTYELAVDLVGDAFCIKVSPRDTVYEKAVNVDEDAIYEAIKDLECGDELRLQIINYTQLILENKQ
notes: BFRF1 of Epstein-Barr virus strain B95-8, residues 1-195; BFLF2 of Epstein-Barr virus strain B95-8, residues 66-318; Heterodimer of m1 and m2; used for the NEC/NEC dimers seen in the crystal; also called nuclear egress complex; NEC1-5 (copies in the crystal); source: E. coli Rosetta (DE3), co-expressed, purified (Ni-NTA, glutathione Sepharose, S75 size exclusion); not shown: GST, …
For B1, the binding result in data set [5] was “binds”.
